From US20030131383A1 (INTERLINK BIOTECHNOLOGIES, published 2003)
No end group written: not given here.

What was measured:
Test in all cases: cell-based or functional assay
[1] = molecular target: Chymotrypsin
[2] = molecular target: Carboxypeptidase
[3] = molecular target: T1, Papain (UniProt P00784 134-345)
T1 sequence (looked up): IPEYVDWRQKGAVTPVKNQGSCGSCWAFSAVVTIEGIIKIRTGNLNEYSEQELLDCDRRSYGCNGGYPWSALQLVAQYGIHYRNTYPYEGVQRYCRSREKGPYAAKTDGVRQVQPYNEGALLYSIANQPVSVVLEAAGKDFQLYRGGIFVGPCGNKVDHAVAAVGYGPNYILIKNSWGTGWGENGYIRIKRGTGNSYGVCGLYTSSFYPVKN

% Inhibition of Proteolysis by Rev4 at 2.5 µg/ml [1]: 16%
% Inhibition of Proteolysis by Rev4 at 5 µg/ml [1]: 42%
% Inhibition of Proteolysis by Rev4 at 10 µg/ml [1]: 75%
% Inhibition of Proteolysis by Rev4 at 20 µg/ml [1]: 97%
% Inhibition of Proteolysis by Rev4 at 2.5 µg/ml [2]: 58%
% Inhibition of Proteolysis by Rev4 at 5 µg/ml [2]: 92%
% Inhibition of Proteolysis by Rev4 at 10 µg/ml [2]: 100%
% Inhibition of Proteolysis by Rev4 at 20 µg/ml [2]: 100%
% Inhibition of Proteolysis by Rev4 at 2.5 µg/ml [3]: 29%
% Inhibition of Proteolysis by Rev4 at 5 µg/ml [3]: 72%
% Inhibition of Proteolysis by Rev4 at 10 µg/ml [3]: 93%
% Inhibition of Proteolysis by Rev4 at 20 µg/ml [3]: 99%
Binder: RRWPWWPWKWPLI-NH2 [Rev4 (reverse indolicidin), C-terminal amide form]
